# “And” between values parts separate entries of the source, which are not always exact repeats. Equal values may be shown once. Read-outs that look alike come from different tables or passages of the source.
# T1: CD19 (human, UniProt P15391)
# T1 chain: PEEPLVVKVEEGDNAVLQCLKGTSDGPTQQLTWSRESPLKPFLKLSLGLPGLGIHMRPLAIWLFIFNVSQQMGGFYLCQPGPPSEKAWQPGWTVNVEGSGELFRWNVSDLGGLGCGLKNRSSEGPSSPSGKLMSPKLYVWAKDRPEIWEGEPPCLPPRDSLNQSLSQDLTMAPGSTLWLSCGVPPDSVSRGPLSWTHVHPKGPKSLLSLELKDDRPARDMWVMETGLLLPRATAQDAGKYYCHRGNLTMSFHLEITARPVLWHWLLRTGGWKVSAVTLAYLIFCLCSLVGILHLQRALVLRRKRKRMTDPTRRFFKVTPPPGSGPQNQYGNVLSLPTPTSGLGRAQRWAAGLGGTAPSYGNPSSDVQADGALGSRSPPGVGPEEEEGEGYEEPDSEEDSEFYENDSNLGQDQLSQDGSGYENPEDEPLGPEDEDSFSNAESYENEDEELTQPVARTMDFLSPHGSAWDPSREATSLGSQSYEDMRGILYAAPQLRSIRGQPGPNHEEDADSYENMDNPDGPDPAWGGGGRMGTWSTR
# How the values were obtained:
# [1] = biological target: T1, CD19; experiment: ELISA
# [2] = biological target: T2, IGF2 (human, UniProt P01344); experiment: ELISA
# [3] = biological target: T2, IGF2; experiment: SPR
# [4] = biological target: T3, IGF1 (human, UniProt P05019); experiment: ELISA
# [5] = biological target: T3, IGF1; experiment: ELISA; remark: listed apart in the source
# [6] = biological target: T3, IGF1; experiment: SPR
# [7] = biological target: T2, IGF2; experiment: ELISA; remark: listed apart in the source
# [8] = biological target: T4, DLL4 (human, UniProt Q9NR61); experiment: ELISA
# T4 sequence (Q9NR61 27-524): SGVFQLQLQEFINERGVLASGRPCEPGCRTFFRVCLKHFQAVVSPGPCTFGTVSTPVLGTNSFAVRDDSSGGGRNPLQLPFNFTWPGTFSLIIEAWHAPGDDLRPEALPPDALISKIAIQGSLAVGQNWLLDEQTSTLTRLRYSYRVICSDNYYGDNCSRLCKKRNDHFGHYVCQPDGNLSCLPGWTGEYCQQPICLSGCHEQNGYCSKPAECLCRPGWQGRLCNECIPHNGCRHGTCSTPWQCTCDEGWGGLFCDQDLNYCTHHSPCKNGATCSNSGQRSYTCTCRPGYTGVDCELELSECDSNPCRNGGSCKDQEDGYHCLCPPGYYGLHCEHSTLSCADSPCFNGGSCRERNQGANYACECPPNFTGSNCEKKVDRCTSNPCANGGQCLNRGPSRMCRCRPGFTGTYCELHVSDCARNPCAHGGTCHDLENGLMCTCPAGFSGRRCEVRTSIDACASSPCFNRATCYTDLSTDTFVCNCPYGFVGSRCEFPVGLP
# [9] = biological target: T4, DLL4; experiment: competition
# [10] = biological target: T4, DLL4; experiment: SPR
# [11] = biological target: T4, DLL4; experiment: ELISA; remark: listed apart in the source
# [12] = biological target: T4, DLL4; experiment: ELISA; remark: listed apart in the source
# [13] = biological target: CD40 (human, UniProt P25942); experiment: ELISA
# Sequence of CD40 (P25942 21-193): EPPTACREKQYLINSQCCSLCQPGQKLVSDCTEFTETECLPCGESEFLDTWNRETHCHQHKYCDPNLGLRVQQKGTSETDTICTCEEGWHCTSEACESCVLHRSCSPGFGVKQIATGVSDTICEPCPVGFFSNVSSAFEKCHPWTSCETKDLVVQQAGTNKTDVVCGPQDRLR
# [14] = biological target: T5, IGF1R (human, UniProt P08069); experiment: SPR
# [15] = biological target: T5, IGF1R; experiment: ELISA
# [16] = biological target: T5, IGF1R; experiment: ELISA; remark: listed apart in the source
binder,measurement,setting,value
"DVD002 CD19 arm (antibody, V domains shown, DVD-Ig outer) VH: QVQLQQSGAELVRPGSSVKISCKASGYAFSSYWMNWVKQRPGQGLEWIGQIWPGDGDTNYNGKFKGKATLTADESSSTAYMQLSSLASEDSAVYFCARRETTTVGRYYYAMDYWGQGTSVTVSS VL: DILLTQTPASLAVSLGQRATISCKASQSVDYDGDSYLNWYQQIPGQPPKLLIYDASNLVSGIPPRFSGSGSGTDFTLNIHPVEKVDAATYHCQQSTEDPWTFGGGTKLEIKR",EC50,[1],0.07 nM
"DVD013 CD19 arm (antibody, V domains shown, DVD-Ig inner) VH: QVQLQQSGAELVRPGSSVKISCKASGYAFSSYWMNWVKQRPGQGLEWIGQIWPGDGDTNYNGKFKGKATLTADESSSTAYMQLSSLASEDSAVYFCARRETTTVGRYYYAMDYWGQGTSVTVSS VL: DILLTQTPASLAVSLGQRATISCKASQSVDYDGDSYLNWYQQIPGQPPKLLIYDASNLVSGIPPRFSGSGSGTDFTLNIHPVEKVDAATYHCQQSTEDPWTFGGGTKLEIKR",EC50,[1],7.29 nM
"DVD014 CD19 arm (antibody, V domains shown, DVD-Ig outer) VH: QVQLQQSGAELVRPGSSVKISCKASGYAFSSYWMNWVKQRPGQGLEWIGQIWPGDGDTNYNGKFKGKATLTADESSSTAYMQLSSLASEDSAVYFCARRETTTVGRYYYAMDYWGQGTSVTVSS VL: DILLTQTPASLAVSLGQRATISCKASQSVDYDGDSYLNWYQQIPGQPPKLLIYDASNLVSGIPPRFSGSGSGTDFTLNIHPVEKVDAATYHCQQSTEDPWTFGGGTKLEIKR",EC50,[1],0.12 nM
"DVD001 CD19 arm (antibody, V domains shown, DVD-Ig inner) VH: QVQLQQSGAELVRPGSSVKISCKASGYAFSSYWMNWVKQRPGQGLEWIGQIWPGDGDTNYNGKFKGKATLTADESSSTAYMQLSSLASEDSAVYFCARRETTTVGRYYYAMDYWGQGTSVTVSS VL: DILLTQTPASLAVSLGQRATISCKASQSVDYDGDSYLNWYQQIPGQPPKLLIYDASNLVSGIPPRFSGSGSGTDFTLNIHPVEKVDAATYHCQQSTEDPWTFGGGTKLEIKR",EC50,[1],12.9 nM
"AB010 (antibody, V domains shown) VH: QVQLVQSGAEVKKPGASVKVSCKASGYTFTSYDINWVRQATGQGLEWMGWMNPNSGNTGYAQKFQGRVTMTRNTSISTAYMELSSLRSEDTAVYYCARDPYYYYYGMDVWGQGTTVTVSS VL: QSVLTQPPSVSAAPGQKVTISCSGSSSNIENNHVSWYQQLPGTAPKLLIYDNNKRPSGIPDRFSGSKSGTSATLGITGLQTGDEADYYCETWDTSLSAGRVFGGGTKLTVLG",EC50,[2],10 nM and 18.1 nM
same,Kd,[3],< 0.299 pM and 0.423 pM
same,EC50,[4],4.8 nM
same,EC50,[5],4.77 nM
same,Kd,[6],0.388 nM
same,EC50,[7],18.1 nM and 10 nM
"DVD029 IGF1,2 arm (antibody, V domains shown, DVD-Ig inner) VH: QVQLVQSGAEVKKPGASVKVSCKASGYTFTSYDINWVRQATGQGLEWMGWMNPNSGNTGYAQKFQGRVTMTRNTSISTAYMELSSLRSEDTAVYYCARDPYYYYYGMDVWGQGTTVTVSS VL: QSVLTQPPSVSAAPGQKVTISCSGSSSNIENNHVSWYQQLPGTAPKLLIYDNNKRPSGIPDRFSGSKSGTSATLGITGLQTGDEADYYCETWDTSLSAGRVFGGGTKLTVLG",EC50,[2],206 nM
same,Kd,[3],302 pM
same,EC50,[4],229 nM
same,EC50,[5],229 nM
same,Kd,[6],6.36 nM
same,EC50,[7],206 nM
"DVD030 IGF1,2 arm (antibody, V domains shown, DVD-Ig outer) VH: QVQLVQSGAEVKKPGASVKVSCKASGYTFTSYDINWVRQATGQGLEWMGWMNPNSGNTGYAQKFQGRVTMTRNTSISTAYMELSSLRSEDTAVYYCARDPYYYYYGMDVWGQGTTVTVSS VL: QSVLTQPPSVSAAPGQKVTISCSGSSSNIENNHVSWYQQLPGTAPKLLIYDNNKRPSGIPDRFSGSKSGTSATLGITGLQTGDEADYYCETWDTSLSAGRVFGGGTKLTVLG",EC50,[2],5.5 nM
same,Kd,[3],2.34 pM
same,EC50,[4],1.8 nM
same,EC50,[5],1.75 nM
same,Kd,[6],0.292 nM
same,EC50,[7],5.49 nM
AB015 (antibody) chain 1: EVQLVESGGGLVQPGGSLRLSCAASGFTFTDNWISWVRQAPGKGLEWVGYISPNSGFTYYADSVKGRFTISADTSKNTAYLQMNSLRAEDTAVYYCARDNFGGYFDYWGQGTLVTVSS chain 2: DIQMTQSPSSLSASVGDRVTITCRASQDVSTAVAWYQQKPGKAPKLLIYSASFLYSGVPSRFSGSGSGTDFTLTISSLQPEDFATTYYCQQSYTGTVTFGQGTKVEIKR,EC50,[8],0.31 nM
same,IC50,[9],0.37 nM and 0.4 nM
same,Kd,[10],0.414 nM
same,EC50,[11],0.03 nM
"DVD043 DLL4 arm (antibody, DVD-Ig inner) chain 1: EVQLVESGGGLVQPGGSLRLSCAASGFTFTDNWISWVRQAPGKGLEWVGYISPNSGFTYYADSVKGRFTISADTSKNTAYLQMNSLRAEDTAVYYCARDNFGGYFDYWGQGTLVTVSS chain 2: DIQMTQSPSSLSASVGDRVTITCRASQDVSTAVAWYQQKPGKAPKLLIYSASFLYSGVPSRFSGSGSGTDFTLTISSLQPEDFATTYYCQQSYTGTVTFGQGTKVEIKR",EC50,[8],2.12 nM
same,IC50,[9],13.1 nM
same,Kd,[10],2.32 nM
same,EC50,[12],0.67 nM
same,EC50,[11],0.5 nM
"DVD010 CD40 arm (antibody, V domains shown, DVD-Ig outer) VH: QVQLVESGGGVVQPGRSLRLSCAASGFTFSSYGMHWVRQAPGKGLEWVAVISYEESNRYHADSVKGRFTISRDNSKITLYLQMNSLRTEDTAVYYCARDGGIAAPGPDYWGQGTLVTVSS VL: DIVMTQSPLSLTVTPGEPASISCRSSQSLLYSNGYNYLDWYLQKPGQSPQVLISLGSNRASGVPDRFSGSGSGTDFTLKISRVEAEDVGVYYCMQARQTPFTFGPGTKVDIRR",EC50,[13],0.82 nM
"AB009 (antibody, V domains shown) VH: QVQLVESGGGVVQPGRSLRLSCAASGFTFSSYGMHWVRQAPGKGLEWVAVISYEESNRYHADSVKGRFTISRDNSKITLYLQMNSLRTEDTAVYYCARDGGIAAPGPDYWGQGTLVTVSS VL: DIVMTQSPLSLTVTPGEPASISCRSSQSLLYSNGYNYLDWYLQKPGQSPQVLISLGSNRASGVPDRFSGSGSGTDFTLKISRVEAEDVGVYYCMQARQTPFTFGPGTKVDIRR",EC50,[13],0.99 nM
"DVD009 CD40 arm (antibody, V domains shown, DVD-Ig inner) VH: QVQLVESGGGVVQPGRSLRLSCAASGFTFSSYGMHWVRQAPGKGLEWVAVISYEESNRYHADSVKGRFTISRDNSKITLYLQMNSLRTEDTAVYYCARDGGIAAPGPDYWGQGTLVTVSS VL: DIVMTQSPLSLTVTPGEPASISCRSSQSLLYSNGYNYLDWYLQKPGQSPQVLISLGSNRASGVPDRFSGSGSGTDFTLKISRVEAEDVGVYYCMQARQTPFTFGPGTKVDIRR",EC50,[13],3.55 nM
"AB011 (antibody, V domains shown) VH: EVQLLESGGGLVQPGGSLRLSCTASGFTFSSYAMNWVRQAPGKGLEWVSAISGSGGTTFYADSVKGRFTISRDNSRTTLYLQMNSLRAEDTAVYYCAKDLGWSDSYYYYYGMDVWGQGTTVTVSS VL: DIQMTQFPSSLSASVGDRVTITCRASQGIRNDLGWYQQKPGKAPKRLIYAASRLHRGVPSRFSGSGSGTEFTLTISSLQPEDFATYYCLQHNSYPCSFGQGTKLEIKR",Kd,[14],0.848 nM
same,EC50,[15],0.3 nM
same,EC50,[16],0.28 nM
"DVD022 IGF1R arm (antibody, V domains shown, DVD-Ig outer) VH: EVQLLESGGGLVQPGGSLRLSCTASGFTFSSYAMNWVRQAPGKGLEWVSAISGSGGTTFYADSVKGRFTISRDNSRTTLYLQMNSLRAEDTAVYYCAKDLGWSDSYYYYYGMDVWGQGTTVTVSS VL: DIQMTQFPSSLSASVGDRVTITCRASQGIRNDLGWYQQKPGKAPKRLIYAASRLHRGVPSRFSGSGSGTEFTLTISSLQPEDFATYYCLQHNSYPCSFGQGTKLEIKR",Kd,[14],0.778 nM
same,EC50,[15],0.3 nM
same,EC50,[16],0.26 nM
"DVD032 IGF1R arm (antibody, V domains shown, DVD-Ig outer) VH: EVQLLESGGGLVQPGGSLRLSCTASGFTFSSYAMNWVRQAPGKGLEWVSAISGSGGTTFYADSVKGRFTISRDNSRTTLYLQMNSLRAEDTAVYYCAKDLGWSDSYYYYYGMDVWGQGTTVTVSS VL: DIQMTQFPSSLSASVGDRVTITCRASQGIRNDLGWYQQKPGKAPKRLIYAASRLHRGVPSRFSGSGSGTEFTLTISSLQPEDFATYYCLQHNSYPCSFGQGTKLEIKR",Kd,[14],0.829 nM
same,EC50,[15],0.2 nM
same,EC50,[16],0.16 nM

# Source: patent US9029508 (dated 2015)
